Key:
[1] = molecular target: the molecule itself; assay: AUC; multi-speed sedimentation equilibrium at varying protein concentration, 20 mM Tris-HCl pH 8, 150 mM NaCl, 0.5 mM TCEP, interference data, global fit with SEDPHAT; monomer to dimer
[2] = molecular target: the molecule itself; assay: as above; remark: listed apart in the source

B1: PFV-Gag CtDCEN (domain or fragment)
chain: RTHGTFPMHQLGNVIKGIVDQEGVATAYTLGMMLSGQNYQLVSGIIRGYLPGQAVVTALQQRLDQEIDNQTRAETFIQHLNAVYEILGLNARGQSIR
notes: Gag of Prototype foamy virus (PFV), residues 381-477 (CtDCEN), amplified from plasmid pcziGag4, in pET22b (NdeI/XhoI); also called PFV-CtDCEN; source: E. coli Rosetta 2 (DE3), purified (Ni-NTA, SEC on Superdex 75)
[1]
  Ka: 1.1e+06 M⁻¹
  stoichiometry N: 2
[2]
  Kd: 900 nM
